B1: CCDC89 (parent)
chain: LNAELEEKMMQEAEKLKAQGEYSR
B2: CCDC6 (parent)
chain: FTPPTSLTRAGMSYYNSPGLHVQH

Variants of: B1
Test: protein stability index of a GFP-peptide fusion (GPS, HEK-293T) (PSI 1-6); higher = more stable
Conditions: c terminus: a fixed tail appended
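Further: lentivirally expressed fusions sorted by FACS into six bins by GFP to DsRed ratio, PSI derived from sequencing read proportions per bin multiplied by bin number.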

Protein stability index: each site, then its substitutions
E4: D 4.94; K 3.96; S 5.16; I 4.6; R 4.57; M 3.91; C 3.98; H 4.4; W 3.12; L 4.56; F 4.47; T 4.3; Y 3.74; Q 4.76; P 3.94; V 3.95
M9: H 5.95; F 4.97; G 5.05; C 5.52; A 5.2; I 5.12; D 4.89
L5: Q 5.55; W 4.71; K 4.53; I 4.88; N 5.44; F 4.73; R 4.7; A 4.86; D 4.71; Y 4.33; E 5.46; H 5.19; V 5.09; S 5.38; T 5.47; M 5.21; P 5.58
N2: S 5.11; G 5.14; D 3.11; P 4.82; M 4.99; F 4.17; I 4.79; Q 5.63; A 4.98; T 5.32; H 5.42; R 3.94; W 2.71
L1: H 4.89; N 4.97; Q 5.11; D 5.54; P 5.4; E 4.91; K 5.3; Y 4.95; T 4.98; S 5.21; F 5.18; R 5.17; I 4.69; V 4.41; W 4.8; C 5.32; A 5.74; M 5.2
K8: S 3.82; D 4.78; A 4.9; Y 4.46; V 4.86; R 4.98; M 4.92; N 4.49; H 5.36; C 5.15; L 5.19; Q 5.02; I 4.25; P 5.12; W 4.5
E6: N 4.71; S 4.96; P 4.8; C 4.69; T 3.27; I 4.08; Q 4.65; R 4.36; G 5.15; F 3.39; M 4.42; W 3.56; H 4.79; K 4.64; L 2.68; V 3.04
E7: A 4.87; C 5; S 4.01; F 4.97; V 5; T 4.74; Q 4.18; Y 4.61; I 4.64; G 4.35; H 4.5; D 4.81; M 4.54; R 3.8
A3: S 4.96; Y 4.2; C 4.69; G 3.57; N 3.89; H 4.71; F 4.57; V 5.13; Q 4.97; E 4.45; L 5.02; P 4.76; D 5.08; W 4.58; R 4.94; T 5.63; I 4.9; K 5.28

Variants of: B2
Test: as above
Conditions: c terminus: a fixed tail appended

Protein stability index, by site and new letter:
H21: N 1.97; K 1.68; W 2.36; V 2.58; I 1.61; Q 2.54; T 1.91; R 1.75; G 2.2; L 1.81; D 1.47; C 1.81; A 2.11; Y 1.25; M 1.6; F 1.61; P 1.76; S 2.13; E 2.75
S17: E 1.93; N 1.24; F 2.95; C 1.24; M 1.32; W 2.48; G 2; K 2.04; T 1.64; Q 1.57; Y 1.68; L 1.78; D 2.09; V 1.86; I 1.7; R 1.76; A 2.94; H 1.83
N16: K 1.95; S 1.65; Q 1.94; D 2.33; I 1.98; R 1.42; T 2.17; L 2.09; A 2.42; E 1.62; P 1.89; C 2.06; H 2.12; V 2.32; M 1.89; G 1.53; F 1.33; Y 1.77
G19: W 1.8; E 2.1; F 2.45; C 1.98; H 1.96; L 1.66; M 2.08; N 2.09; T 1.86; Q 2.87; S 1.73; V 3.1; I 1.56; R 2.13; A 1.98; Y 1.96; K 2.27; D 2.22
Y15: A 2.24; G 2.37; P 2.57; N 2.23; S 2.21; V 2.89; E 2.35; M 1.92; I 2.18; R 2.33; D 2.58; W 3.27; K 2.33; Q 2.45; C 1.99; L 2.22; F 2.5; T 2.51; H 2.11
V22: C 1.51; Q 1.56; D 1.86; R 2.01; Y 2.32; L 1.95; I 2.14; F 1.51; A 1.7; S 1.74; K 2.25; E 2.18; H 1.87; T 1.97; G 2.01; N 1.98; M 1.64; W 1.22
Y14: Q 2.65; G 2.31; K 2.66; V 1.32; S 2.46; F 1.94; M 1.7; I 1.64; L 1.44; W 1.67; R 3.18; N 2.6; H 2.42; T 2.33; P 1.88
P18: T 2.11; D 1.5; R 1.95; W 2.62; H 1.38; A 2.28; Q 2.16; L 1.22; E 2.52; M 1.73; K 2.43; C 1.21; V 2.27; N 1.78; S 1.87; G 2.05; F 1.25; I 2.06; Y 2.87
Q23: S 1.43; P 1.79; Y 2.06; C 1.65; V 2.3; M 1.31; K 2.34; L 2; G 1.56; R 2.08; F 1.92; H 1.88; A 1.74; I 2.46; W 3.23; T 1.73; D 1.69; N 1.2
H24: K 2.7; I 3.53; N 1.15; V 1.67; D 1.82; W 1.38; C 1.66; A 1.56; T 1.85; M 2.9; Q 1.86; F 2.77; R 1.73; Y 1.19; S 1.8; P 2.24; G 1.77; L 1.63; E 1.84
L20: R 2.62; D 2.02; A 2.14; V 2.02; N 2.4; E 2.27; G 2.93; W 2.79; Y 1.51; K 2.25; M 1.8; S 1.84; Q 2.69; F 1.72; C 1.68; T 2.35; I 2.36; H 1.72; P 1.67

From the supplement of paper PMC10567573
